Here are results for 41 sequences from the nanobody polyreactivity screen of Harvey et al. (2022).

The data set is described as follows: yeast display, Sf9 membrane polyspecificity reagent, FACS + sequencing; frameworks hold sequencing errors. Summed up:
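Polyreactivity labels are assigned by the sorting gate from which each nanobody was recovered. The gates were low and high (top ~1%), set on anti-HA fluorescence for expression and streptavidin fluorescence for reagent binding. Before sorting, galactose-induced (36–48 hours) yeast display cells were stained for 1 hour at 4 °C with 10% biotinylated, detergent-solubilized Sf9 membrane reagent.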
On to “QVQLEESGGGLVQAGGSLRLTCAASGFTFGYYTMGWYRQAPGQERELVAAISSGGSTNYADSVKGRFTISRDNAKNTVYLEMNSLKPEDTAVYYCTATQIGPYYLPFDSWGQGTQVTVSS”, for which the “polyreactivity (PSR sort gate)” value is given as “high polyreactivity”.
For the sequence “QVQLEESGGGLVQAGGSLRLTCAASGFTINEYAMGRYIQAPGKERELVAAISRGGTTYYADSVKGRFTISRDNAKNTVYLQMNSLKPEDTAVYYCAAPYFWNTEMDYWGQGTQVSVSS”, the “polyreactivity (PSR sort gate)” value is given as “low polyreactivity”.
As for “QVQLEESGGGLVQAGGSLRLTCAASGLIFHDYAMGWYRQATGTEMELVAAISWSDGTTYYADSVKGRFTISRDNAKITVYLQMNSLKPEDTAVYYCAAEEVSGWEYDFWGQGTQVTVSS”, the entry is “high polyreactivity”.
As to “QVQLEESGGGLVQAGGSLRLTCAASGRIFYRNSMGWYRQATGKERELVATISGRGGSTYYADSVKGRFTISRDNAKNTDYLQMNSLKPEDTAVYYCAVRNHGSVRWTGESWGQGTQVTVSS”, the “polyreactivity (PSR sort gate)” value is “high polyreactivity”.
In the case of “QVQLEESGGGLVQAVGSLRLSCAASGFIFKRNAMGWYRQAPGKERELVAAITSRGGHTYYADSVKGRFTISRDNAKNTVYLQMNSLKAEDTAVYYCAATYASHDDYWGQGTQVTVSS”, the “polyreactivity (PSR sort gate)” value is given as “high polyreactivity”.
Take “QVQLEESGGGVVQAGGSLRLSCAASGGTFSRYAMGWYRQATGKERELVAAITRSGASTFYADSVKGRFTISRDNAKNTVYLQMNSLKPEDTAVYYCAADTYVYNEYDYWGQGTQVTVSS”: the “polyreactivity (PSR sort gate)” value is “high polyreactivity”.
With “QVQLEESGGRLVQAGCSLRLSCAASGRTFDYYAMGWYRQAPGKEWELVAAITASGGSTFYADSVKGRFTISRDNAKNTVYLQMYSMKPEDTAVYYCAGRYTWRYFIKYGYWGQGTQVTVSS” the entry was “high polyreactivity”.
In the case of “QVQLEESGGRLVQAGCSLRLSCAASGYIFRKYAMGWYRQAPGKEWELVADISSSGGSTYYADSVKGRFTISRDNAKNTVYLQMNSLKPEDTAGYYCAKDRKSSRRINRMDYWGQGTQVTVSS”, the “polyreactivity (PSR sort gate)” value was “high polyreactivity”.
For “QVQLEESGGRLVQAGGRLRLNCAASGLTFNTNSMGWYRKAPGKERELVAAISRGGGSTYYADSVKGRFTISRDNAKNSVYLQMNSLKPEDTAVYYCNAEKSASYLLYDYWGQGTLVTVSS”, the “polyreactivity (PSR sort gate)” value is listed as “high polyreactivity”.
As for “QVQLEESGGRLVQAGGSLRLICAASGSTFLANAMGWYRQAPGKERELVATISSGGSTNYADSVKGRFTISRDNAKNTVYLQMNSLKPEDTAVYYCAAEYWYAWQEYGYWGQGTQVTVSS”, the entry is “low polyreactivity”.
With “QVQLEESGGRLVQAGGSLRLSCAASGRTFYPYAMGWYRQAPGKERELVAAISYRGGSTYYADSVKGRFTISRDNAKNTVYLQMNSLKPEDTAVYYCAKRGYASGSKWDYGYWGQGTQVTVSS” the entry was “high polyreactivity”.
With “QVQLEESGGSLVQAGGSLRLSCAASGRTFYHYAMGWYRPAPGKERQLVAAISSGGSTKYADSVKGRFTISRDNAKNTVYLQMNSLKPEDTAVYYCAARTYQKGGRYYYWGQGTHVTVSS” the entry was “high polyreactivity”; with “QVQLEESGLALVQAGGSLRLSCADSGRIFRKKAMGWYRQAPGKERELVAAISSSGSTYYADSVKGRFKISRDNAKNTVYLQMNSLKPVDTAVYYCAARYQYGNRRGRDYWGQGTQVTVSS”, “high polyreactivity”; with “QVQLEESGRGLVQAGGSLRLSCAASGSTLSTYSMGWYRQAPGKERELVAAITWSDDSTYYADSVKGRFTISRDNAKNTFYLQMNSLKPEDTAVYYCAAEYISWYFGYDYWGQGTQVTVSS”, “high polyreactivity”.
Take “QVQLEESGVGLVQAGGSLRLSCAASGSIIHYNAMGWYRKAPGKERELVASISSGGRTYYADSVKGRFTISRDNAKNTVYLQMNSLNQEDTAVYYCAAEYYQTTYVWWTYDYSWGLGTQVTVSS”: the “polyreactivity (PSR sort gate)” value is given as “low polyreactivity”.
Take “QVQLEESRGGLVQAGGSLRLSCAASGSILTGYAMGLSRQAPGKERELVAAINFSGDNTYYADSVKGRFTISRDNAKNSVYLQMNSLKPEDTAVYYCNARNAVEDDYWGQGTQVTVSS”: the “polyreactivity (PSR sort gate)” value was “low polyreactivity”.
On to “QVQLEESVGGLDQAGGSLRLSCAASGHIIVYYPLGWYRQAPGKERELVAAITSGGSTNYADSGKGRFTISRDNAKNTVYLQMNSLKPADSAVYYCAARQWFSHRRWGGSRYDYWGQGTQVTVSS”, for which the “polyreactivity (PSR sort gate)” value is reported as “low polyreactivity”.
As for “QVQLEESVGGLVQAGCSLRLSCAASGGIFWVYAMGWYRQAPGKERELVAAISNSDTSTSYADSVKGRFTISRDNAKNTVYLQMNSLKPEDTAVYYCNADSPSLSGDYWGQGTQVTVSS”, the entry is “low polyreactivity”; as for “QVQLEESVGGLVQAGGSLRLSCAASGLTFRAYAMGWYRQAPGKERELVAAISSGGSTSYADSVKGRFTISRDNANITVYLQMNRLKPEDSAVYYCAADRARRGIRDYYWGQGTQVTVSS”, “high polyreactivity”.
As for “QVQLEESVGGLVQAGGSLRLTCAASGSTLSYYSMGWYRQAPGKERELVARITRSGGRTYYADSVKGRFTISRDNEKNTVYLQINSLKPEDTGVYYCNKVAYYSRRMDYWGQGTLVTVSS”, the entry is “high polyreactivity”.
On to “QVQLEESVGGLVQAGRSLRLSCASSGTTFYYYALGWYRQAPGKERELVATIDSGTSTYYADSVKGRFTISRDNAKNTVYLQMNSLKPEDTAVYYCAAKTWSWSYGYNYWGQGTQVTVSS”, for which the “polyreactivity (PSR sort gate)” value was “low polyreactivity”.
As for “QVQLEESWGGLVQAGGSLRLICAASGSIFSYYAMGWYRQAPGKERELVAVITSGGSTYYADSVKGRFTISRDNAKNTVYLQMNSLKPEDTAVYYCAVKYPELRTWGYYYWGQGTQVTVSS”, the “polyreactivity (PSR sort gate)” value is recorded as “high polyreactivity”.
Take “QVQLEESWGGLVQAGGSLRLSCAASGSIYWEYAMGWYTPAPGKEREFVATISARGGRTYYADSVKGRFTISRDNAKNTVYLQMNSLKPEDTAVYYCANVGVFHLRDNYRFDFWGQGTQVTVSS”: the “polyreactivity (PSR sort gate)” value was “low polyreactivity”.
With “QVQLEETGGGLLQAGGSLRLSSAASGRTFVNYAMGWYRQAPGKEREFVAAIDRRSGSTYYADSVKGRFTISRDNAKNTVYLQMTSLKPEDTAVDYCAASPYIYDSWGQGTQVTVSS” the entry was “low polyreactivity”; with “QVQLGDSGGGLVHAGGSLSLSCAASGSTFAYYSMGWYRQAPGKERELVAGFTWTGGSTYYADSVKGRFTISRDNAKNTVYFQKNSLKPEDTAVYFCAVTYPYGYEYDHWGQGSQVTVSS”, “low polyreactivity”; with “QVQLGDSGGGLVQAGGSLRLSCAASGFSIFTYAMGWYRQAPGKERELVAAITTGGSTNYADSVKGRFTISRDNAKNTVYLKMNSLKPEDTALYYCAALRVSVILLVRLDYWGQGTQVTVSS”, “low polyreactivity”.
With “QVQLGDSGGGLVQAGGSLRLSCAASGRIFGVYAMGWYRQAPGKERELVAAISRNGGSTYYADSVKGRFTISRDNAKNTVYLQMNSLKPEDTAVYYCATGGGVEAAGAYWGQGTQVTVSS” the entry was “low polyreactivity”; with “QVQLGESGAGLVQAGGSLRLSCAASGRTFYRYAMGWYRQAPGKERELVAAISSSGGRTYYADSVKGRFTISRDNAKNTVYLQMNSLKPEDTAVYYCAKSGYHSLVLWIEDYWGQGTQVTVSS”, “low polyreactivity”; with “QVQLGESGAGLVQAGGSLRLSCAASGRTLRKYAMGLYTQAPGKERELVAAITTSGGSKYYADSVKGRFTISRDNAKNTVYLPMNSLKPEDTAVYYCAKCGYSGYHSSYDYWGQGTQVTVSS”, “high polyreactivity”.
With “QVQLGESGGGFFKAGASLRVICAASGRTFRRNAKGWYRQSPGTERELVAAITCGGSTNYADSVKGRFTISRDNENNTVYLQMNSLKPEDTAVYYCNADSVWGWYTYDYWGQGTQVTVSS” the entry was “high polyreactivity”; with “QVQLGESGGGIVQAGGSLRLSCAASGFIIRYNAMGWYRQAPGKERQFVAAISWGGGRTYYADSVKGRFTISRDNAKNTVYLQMNSLKPEDTAVYFCAAVSPHNRYGYKYDYWGQGTQVTVSS”, “high polyreactivity”; with “QVQLGESGGGLVQAGGSLGLSCAASGGTLRVNTMGWYRQAPGKERELVAAISTRSGRTYYADSVKGRFTISRDNAKYTVYLQMNSLKPEDTAVYYCAATLYRRRSAFDGDWGQGTQVTVSS”, “high polyreactivity”.
For the sequence “QVQLGESGGGLVQAGGSLRLICAASGSIFDVNAMGWYRQAPGKERELVAAISDSGGSTYYADSVKGRFTISRDNAKNTVYLQMNSLKPEDTAVYYCNADWSWYNYDDFDYWGQGTQVTVSS”, the “polyreactivity (PSR sort gate)” value is “low polyreactivity”.
Regarding “QVQLGESGGGLVQAGGSLRLICAASGSTFYYNAMGWSRQAPGKEWELVAAITYSGGDTYYADSVKGRFTMSRDNAKNTVYLQMNSLKPEDTAVYYCAAEYYWYNVYTGHLWYDYWGQGTQVTVSS”, the “polyreactivity (PSR sort gate)” value is recorded as “high polyreactivity”.
Take “QVQLGESGGGLVQAGGSLRLRCAASGYILWNAMGWYRQAPGKERELVAAIRFRGGSTSYADSVKGRFTISRDNAKNTVYLQMNSLKPEDTAVYYCNARWWVIRPYQRHDYWGQGTQVTVSS”: the “polyreactivity (PSR sort gate)” value is “low polyreactivity”.
With “QVQLGESGGGLVQAGGSLRLSCAASGFIFCYYAMGWYRQAPVKERELVAAITSGGRTYYSESVKGRFTISLDNAKNTFYLQMNSMKPEDTSVYYCNVVLRSVVSGDYWGQGTQVTVSS” the entry was “high polyreactivity”; with “QVQLGESGGGLVQAGGSLRLSCAASGFIFEHYARGWYRQAPGTDTEFVARISWGGGSTYYADSVKGRFTISRDNAKNTVYLQMNSLKPEDTAVYYCHALEGVYFGYYPSDYWGQGTQVTVAS”, “low polyreactivity”; with “QVQLGESGGGLVQAGGSLRLSCAASGFSFWYYPMGWYRQAPGKERELVASIRYSGDSTSYADSVKGRFTISRDNAKNNVYFQMNSLKAEDTEVYYSAAVRYWYASYYTYEYWGQGTQVSVSS”, “high polyreactivity”.
Consider “QVQLGESGGGLVQAGGSLRLSCAASGFTFYGNAMGWYRQAPGKERELVAAITYSGGRTYYADSVKGRFTISRDNAKNTVYLQMNSLKPEDTAVYYCARRRGYGQYDYWGQGTQVTVSS”, for which the “polyreactivity (PSR sort gate)” value is recorded as “high polyreactivity”.
Regarding “QVQLGESGGGLVQAGGSLRLSCAASGFTFYNYAMGWYRQAPGKERELVAAISTSGGSTYYADSVKGRFTISRDNAKNTVYLQMNSLKPEDTAVYYCAAQATAYSYAYYYWGQGTQVTVSS”, the “polyreactivity (PSR sort gate)” value is given as “low polyreactivity”.
As for “QVQLGESGGGLVQAGGSLRLSCAASGIIFISYDMGWYRQAPWKERELVARINWDGGSTYYADSVKGRFTISRDNAKNTVYLQMNSLKPEDTAVYYCAAGFVGTNYPLQGFSYEYWGQGTQVTVSS”, the entry is “low polyreactivity”.
